From US20250032576A1, “CNP Therapy” (BIOMARIN PHARMACEUTICAL INC., priority 2021, published 2025)
Several values for one entry are separate records, joined by “and”; a condition that tells them apart may be missing. Equal entries are not always repeated. No end group written: not given here.

What was measured:
[1] = system: children aged 3 to 60 months; parameters: species or system human; conditions: in vivo, sc
Description: See also PCT Application No. PCT/US22/73605.

[2] = clinical; conditions: human, in vivo
Description: Studies from rodent pups, growing lambs and children support the view that circulating levels of CNP products in plasma (CNP and NTproCNP) are sourced largely from growth plate or closely related tissues (Espiner 2018, supra). Measurement of any possible impact on endogenous proCNP production of administered CNP 1-37 Pro Gly (which strongly cross-reacts with CNP but not NTproCNP assay) is therefore only feasible using plasma concentrations of NTproCNP adjusted for age and sex (SDS). […] It is instructive to compare these dynamic changes in CNP with those found in short non Ach children of similar age starting daily doses of Human Growth Hormone (HGH) (Olney, et al. Clin Endocrinol (Oxf) 85:561-568, 2016). In that setting, similar inflections in AGV were associated with increase in NTproCNP (mean 11 pmol/L, delta 22% at day 21) in contrast to the concurrent fall of NTproCNP (approximately 6 pmol/L, range 3-11 pmol/L, delta-12%) at Day 29 during 15-30 μg/kg/d Vosoritide treatment in Cohorts 3 and 4. […] These kinetic responses could relate to the estimated times (approximately 20-22 days) (Sansone et al., J Pediatr Orthop 29:61-67, 2009) for recruited chondrocytes to traverse the respective zones of the expanding growth plate and populate the primary spongiosa.
This temporal constraint may relate to the early growth spurt observed in many of the children studied. […]

[3] = human, in vivo
Description: (§1) In an ongoing Phase II study of CNP therapy in children, a group of patients age 3 to 6 months (cohort 3) were administered CNP (BMN111) at a dose of 30 μg/kg daily subcutaneously, and changes in annualized growth volume, changes in height, and skull morphology were measured.

[4] = clinical; conditions: human, in vivo; for Tmax: Median [range] Tmax; for Cmax: Mean (SD) Cmax
Description: as §1

[5] = molecular target: NPR2 variant Ala48Ser (human) (UniProt P20594); assay: cell-based or functional assay
[6] = molecular target: NPR2 variant Ala59Thr (human) (UniProt P20594); assay: cell-based or functional assay
[7] = molecular target: NPR2 variant Arg263His (human) (UniProt P20594); assay: cell-based or functional assay
[8] = molecular target: NPR2 variant Arg562Gln (human) (UniProt P20594); assay: cell-based or functional assay
[9] = molecular target: NPR2 variant Arg601Ser (human) (UniProt P20594); assay: cell-based or functional assay
[10] = molecular target: NPR2 variant Arg776Trp (human) (UniProt P20594); assay: cell-based or functional assay
[11] = molecular target: NPR2 variant Arg957Cys (human) (UniProt P20594); assay: cell-based or functional assay
[12] = molecular target: NPR2 variant Glu359Ala (human) (UniProt P20594); assay: cell-based or functional assay
[13] = molecular target: NPR2 variant Glu389Asp (human) (UniProt P20594); assay: cell-based or functional assay
[14] = molecular target: NPR2 variant Glu727Gln (human) (UniProt P20594); assay: cell-based or functional assay
[15] = molecular target: NPR2 variant Glu77Lys (human) (UniProt P20594); assay: cell-based or functional assay
[16] = molecular target: NPR2 variant Gly209Val (human) (UniProt P20594); assay: cell-based or functional assay
[17] = molecular target: NPR2 variant Gly21Arg (human) (UniProt P20594); assay: cell-based or functional assay
[18] = molecular target: NPR2 variant Gly917Arg (human) (UniProt P20594); assay: cell-based or functional assay
[19] = molecular target: NPR2 variant HIS508Asp (human) (UniProt P20594); assay: cell-based or functional assay
[20] = molecular target: NPR2 variant His552Arg (human) (UniProt P20594); assay: cell-based or functional assay
[21] = molecular target: NPR2 variant Ile494Ser (human) (UniProt P20594); assay: cell-based or functional assay
[22] = molecular target: NPR2 variant Leu1009Val (human) (UniProt P20594); assay: cell-based or functional assay
[23] = molecular target: NPR2 variant Leu956Gln (human) (UniProt P20594); assay: cell-based or functional assay
[24] = molecular target: NPR2 variant Lys1006Thr (human) (UniProt P20594); assay: cell-based or functional assay
[25] = molecular target: NPR2 variant Lys367Glu (human) (UniProt P20594); assay: cell-based or functional assay
[26] = molecular target: NPR2 variant Lys480Asn (human) (UniProt P20594); assay: cell-based or functional assay
[27] = molecular target: NPR2 variant Lys629Arg (human) (UniProt P20594); assay: cell-based or functional assay
[28] = molecular target: NPR2 variant Pro301Ser (human) (UniProt P20594); assay: cell-based or functional assay
[29] = molecular target: NPR2 variant Ser522Pro (human) (UniProt P20594); assay: cell-based or functional assay
[30] = molecular target: NPR2 variant Thr297Met (human) (UniProt P20594); assay: cell-based or functional assay
[31] = molecular target: NPR2 variant Thr377Asn (human) (UniProt P20594); assay: cell-based or functional assay
[32] = molecular target: NPR2 variant Thr907Met (human) (UniProt P20594); assay: cell-based or functional assay
[33] = molecular target: NPR2 variant Trp42Arg (human) (UniProt P20594); assay: cell-based or functional assay
[34] = molecular target: NPR2 variant Val553Leu (human) (UniProt P20594); assay: cell-based or functional assay
[35] = molecular target: NPR2 variant Val965Asp (human) (UniProt P20594); assay: cell-based or functional assay
[36] = system: mice deficient in Nf1 in type II collagen producing cells; conditions: daily injections; cited from earlier work
[37] = system: mouse model of Cardiofaciocutaneous syndrome using a Braf mutation (p.Q241R); conditions: in vivo; cited from earlier work

## CC[C@H](C)[C@@H]1NC(=O)[C@H](CCCNC(=N)N)NC(=O)[C@H](CC(=O)O)NC(=O)[C@H](CC(C)C)NC(=O)[C@H](CCCCN)NC(=O)[C@H](CC(C)C)NC(=O)CNC(=O)[C@H](Cc2ccccc2)NC(=O)[C@@H](NC(=O)CNC(=O)[C@H](CCCCN)NC(=O)[C@H](CO)NC(=O)[C@H](CC(C)C)NC(=O)CNC(=O)[C@H](CCCCN)NC(=O)[C@H](CCCCN)NC(=O)[C@H](CC(N)=O)NC(=O)[C@H](C)NC(=O)CNC(=O)[C@H](CCCCN)NC(=O)[C@H](Cc2ccc(O)cc2)NC(=O)[C@H](CCCCN)NC(=O)[C@H](CCCNC(=N)N)NC(=O)[C@H](C)NC(=O)[C@H](CC(N)=O)NC(=O)[C@@H]2CCCN2C(=O)[C@H](Cc2c[nH]cn2)NC(=O)[C@H](CCC(=O)O)NC(=O)[C@H](CCC(N)=O)NC(=O)CNC(=O)[C@@H]2CCCN2)CSSC[C@@H](C(=O)O)NC(=O)CNC(=O)[C@H](CC(C)C)NC(=O)CNC(=O)[C@H](CO)NC(=O)[C@H](CCSC)NC(=O)[C@H](CO)NC(=O)CNC1=O [Vosoritide]
[1]
  overall adverse-event profile: generally mild
[2]
  half-life: 28 min
[3]; 15 ug/kg
  Median [range] Tmax: 15.0 [7.0, 31.0] min
[3]; 30 ug/kg
  Mean (SD) Cmax: 13,500 (6770) pg/mL
[3]; sc, 30 ug/kg
  Mean (SD) AUC0-t: 323,000 (129,000) pg-min/mL
[4]; 15 ug/kg
  Tmax: 15 min
[4]; 30 ug/kg
  Cmax: 10.1 ng/mL
  Tmax: 14 min
[4]; sc, 15 ug/kg
  Cmax: 4.43 ng/mL
  Tmax: 15 min
[4]; sc, 15 ug/kg, Mean (SD) t1/2
  half-life: 21.7 min
[4]; sc, 30 ug/kg, Mean (SD) AUC0-t
  AUC(0-t): 9.12 ng·h/mL
[4]; sc, 30 ug/kg
  Cmax: 14.5 ng/mL

## C-type natriuretic peptide (CNP) (from UniProt P23582 105-126) (ligand)
[5]
  average phenotype (cGMP, normalized to RedLuciferase, WT set to 1) (relative to WT = 1): 0.0679
[6]
  average phenotype (cGMP, normalized to RedLuciferase, WT set to 1) (relative to WT = 1): 3.74
[7]
  average phenotype (cGMP, normalized to RedLuciferase, WT set to 1) (relative to WT = 1): 1.86
[8]
  average phenotype (cGMP, normalized to RedLuciferase, WT set to 1) (relative to WT = 1): 1.55 and 1.63
[9]
  average phenotype (cGMP, normalized to RedLuciferase, WT set to 1) (relative to WT = 1): 0.0595
[10]
  average phenotype (cGMP, normalized to RedLuciferase, WT set to 1) (relative to WT = 1): 0.0131
[11]
  average phenotype (cGMP, normalized to RedLuciferase, WT set to 1) (relative to WT = 1): 0.0295 and 0.0155
[12]
  average phenotype (cGMP, normalized to RedLuciferase, WT set to 1) (relative to WT = 1): 3
[13]
  average phenotype (cGMP, normalized to RedLuciferase, WT set to 1) (relative to WT = 1): 0.0708
[14]
  average phenotype (cGMP, normalized to RedLuciferase, WT set to 1) (relative to WT = 1): 1.7
[15]
  average phenotype (cGMP, normalized to RedLuciferase, WT set to 1) (relative to WT = 1): 0.0499
[16]
  average phenotype (cGMP, normalized to RedLuciferase, WT set to 1) (relative to WT = 1): 0.0886
[17]
  average phenotype (cGMP, normalized to RedLuciferase, WT set to 1) (relative to WT = 1): 2.78
[18]
  average phenotype (cGMP, normalized to RedLuciferase, WT set to 1) (relative to WT = 1): 0.0171
[19]
  average phenotype (cGMP, normalized to RedLuciferase, WT set to 1) (relative to WT = 1): 1.74
[20]
  average phenotype (cGMP, normalized to RedLuciferase, WT set to 1) (relative to WT = 1): 1.79
[21]
  average phenotype (cGMP, normalized to RedLuciferase, WT set to 1) (relative to WT = 1): 0.0364
[22]
  average phenotype (cGMP, normalized to RedLuciferase, WT set to 1) (relative to WT = 1): 0.0847
[23]
  average phenotype (cGMP, normalized to RedLuciferase, WT set to 1) (relative to WT = 1): 0.0243
[24]
  average phenotype (cGMP, normalized to RedLuciferase, WT set to 1) (relative to WT = 1): 0.0551
[25]
  average phenotype (cGMP, normalized to RedLuciferase, WT set to 1) (relative to WT = 1): 0.0144
[26]
  average phenotype (cGMP, normalized to RedLuciferase, WT set to 1) (relative to WT = 1): 1.69
[27]
  average phenotype (cGMP, normalized to RedLuciferase, WT set to 1) (relative to WT = 1): 1.49
[28]
  average phenotype (cGMP, normalized to RedLuciferase, WT set to 1) (relative to WT = 1): 0.0848
[29]
  average phenotype (cGMP, normalized to RedLuciferase, WT set to 1) (relative to WT = 1): 0.0567
[30]
  average phenotype (cGMP, normalized to RedLuciferase, WT set to 1) (relative to WT = 1): 0.0302
[31]
  average phenotype (cGMP, normalized to RedLuciferase, WT set to 1) (relative to WT = 1): 0.0106
[32]
  average phenotype (cGMP, normalized to RedLuciferase, WT set to 1) (relative to WT = 1): 0.0146
[33]
  average phenotype (cGMP, normalized to RedLuciferase, WT set to 1) (relative to WT = 1): 0.0288
[34]
  average phenotype (cGMP, normalized to RedLuciferase, WT set to 1) (relative to WT = 1): 1.52
[35]
  average phenotype (cGMP, normalized to RedLuciferase, WT set to 1) (relative to WT = 1): 0.0158

## C-type natriuretic peptide (GLSKGCFGLKLDRIGSMSGLGC; ends and bridges not checked; cysteine pairing not given here; UniProt P23582 105-126, looked up) [CNP, small, single chain peptide having a 17-amino acid loop structure at the C-terminal end]
[36]
  ERK phosphorylation: decreased ERK phosphorylation
  short stature: corrected the short stature
[37]
  body length: increases in body length
